In patent US20250197889:

Substance: Nme1Cas9-Nme2Cas9PID chimera
- in vitro cleavage by the Nme1Cas9-Nme2Cas9PID chimera in the presence of Acr (AcrIIC5Smu): no inhibition by AcrIIC5Smu on this protein chimera was observed

Substance: Nme2Cas9 (Neisseria meningitidis strain De10444/De11444 Cas9), recombinant purified protein
- in vitro cleavage of a target DNA by Cas9-sgRNA (10:1 Acr:Cas9 molar ratio) (AcrIIC1Nme): Acrs IIC1Nme, -IIC2Nme, -IIC3Nme and -IIC4Hpa inhibited Nme2Cas9 gene editing activity
- in vitro cleavage of a target DNA by Cas9-sgRNA (10:1 ratio of Acr:Cas9) (AcrE2): Nme2Cas9 efficiently cleaves a target containing a protospacer with an N4CC PAM in the presence of AcrE2 and AcrIIC5Smu
- in vitro cleavage of a target DNA by Cas9-sgRNA (10:1 Acr:Cas9 molar ratio) (AcrIIC4Hpa): Acrs IIC1Nme, -IIC2Nme, -IIC3Nme and -IIC4Hpa inhibited Nme2Cas9 gene editing activity
- in vitro cleavage of a target DNA by Cas9-sgRNA (10:1 Acr:Cas9 molar ratio) (AcrIIC5Smu): AcrIIC5Smu did not inhibit Nme2Cas9 in vitro even at 10-fold excess
- in vitro cleavage of a target DNA by Cas9-sgRNA (10:1 Acr:Cas9 molar ratio) (AcrIIC3Nme): Acrs IIC1Nme, -IIC2Nme, -IIC3Nme and -IIC4Hpa inhibited Nme2Cas9 gene editing activity
- in vitro cleavage of a target DNA by Cas9-sgRNA (10:1 Acr:Cas9 molar ratio) (AcrIIC2Nme): Acrs IIC1Nme, -IIC2Nme, -IIC3Nme and -IIC4Hpa inhibited Nme2Cas9 gene editing activity

Substance: SmuCas9 (Simonsiella muelleri Cas9)
- Type II-C Cas9 ortholog cleavage tested for sensitivity to anti-CRISPR proteins (certain anti-CRISPRs): all three Type II-C Cas9 orthologs are inhibited by certain anti-CRISPRs
